Reference: the supplement of paper PMC6757056
± gives the standard deviation of the averaged measurements.

B1: library; a variant is named by its letters at N, in order (parent)
chain: GCUGUCACCGGUGUAUUACCCUAGUGGUCGACCGGUCUGAUGAGUCUNNNNNNAGACGAAACAGC

What was measured:
hypoxanthine [1] = variants of: B1; assay: FACS-Seq fitted mean relative fluorescence mCherry/BFP without ligand (log10 relative fluorescence); ligand: hypoxanthine (xanthine aptamer); higher = higher reporter protein expression; conditions: HEK293T, ligand present: no
Summary of the method: (§1)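 With or without ligand for 48 h, enriched HEK293T libraries carrying a lentiviral ribozyme-switch mCherry reporter and EF1α-BFP were sorted into 6 mCherry/BFP bins. Bin genomic DNA was amplified by PCR, barcoded and sequenced on MiSeq. Fluorescence was taken from normal fits to the resulting bin counts. Each fitted mean of log10(mCherry/BFP) was scaled to five spiked-in control ribozymes.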

hypoxanthine [2] = variants of: B1; assay: normalized RNA/DNA level with ligand (relative to sTRSVctl = 100) (log10 (% of sTRSVctl)); ligand: hypoxanthine (xanthine aptamer); higher = less ribozyme self-cleavage, higher mRNA level; conditions: ligand concentration (+) RNA-Seq: 5 mM, HEK293T, reporter: mCherry (pCS4076), ligand present: yes
Summary of the method: (§2)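 RNA level was computed as RNA reads over DNA reads divided by a spiked-in non-cleaving sequence or by the top sequences, then scaled and log-transformed. Scaling was ×100 with log10, the top group was 25 sequences, and the threshold was ≥100 DNA reads. The reads came from HEK293T cells transfected at 4 µg per 6-well well with ribozyme switch library plasmids (mCherry, or eGFP in some ligand experiments). Total RNA was extracted with EDTA 72 h after transfection, with any ligand added 1 h before it.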

hypoxanthine [3] = variants of: B1; assay: normalized RNA/DNA level without ligand (relative to sTRSVctl = 100) (log10 (% of sTRSVctl)); ligand: hypoxanthine (xanthine aptamer); higher = less ribozyme self-cleavage, higher mRNA level; conditions: HEK293T, reporter: mCherry (pCS4076), ligand present: no
Summary of the method: as §2

hypoxanthine [4] = variants of: B1; assay: FACS-Seq fitted mean relative fluorescence mCherry/BFP with ligand (log10 relative fluorescence); ligand: hypoxanthine (xanthine aptamer); ligand concentration (+) FACS-Seq: 5 mM; higher = higher reporter protein expression; conditions: HEK293T, ligand present: yes
Summary of the method: as §1

| Variant | FACS-Seq fitted mean (log10) (hypoxanthine [1]) | normalized RNA/DNA level with ligand (log10) (hypoxanthine [2]) | normalized RNA/DNA level without ligand (log10) (hypoxanthine [3]) | FACS-Seq fitted mean (log10) (hypoxanthine [4]) |
| --- | --- | --- | --- | --- |
| GCGAGA | -0.0976 ± 0.016 | 1.8 ± 0.042 | 1.31 ± 0.0073 | 0.312 ± 0.025 |
| CCCUCU | 0.556 ± 0.081 | 1.98 ± 0.036 | 1.994 ± 0.015 | 0.481 ± 0.086 |
| ACGCUG | 0.109 ± 0.026 | 1.91 ± 0.052 | 1.45 ± 0.031 | 0.566 ± 0.016 |
| ACCAAC | 0.0939 ± 0.026 | 1.93 ± 0.025 | 1.883 ± 0.0074 | 0.317 ± 0.049 |
| ACCAAA | 0.2 ± 0.028 | 1.938 ± 0.011 | 1.8 ± 0.018 | 0.487 ± 0.046 |
| ACCAAU | 0.003 ± 0.21 | 1.9 ± 0.091 | 1.74 ± 0.026 | 0.157 ± 0.038 |
| ACCGUA | 0.247 ± 0.0083 | 1.93 ± 0.065 | 1.822 ± 0.014 | 0.474 ± 0.038 |
| UCCGCG | 0.209 ± 0.032 | 1.894 ± 0.009 | 1.512 ± 0.011 | 0.621 ± 0.055 |
| UCGAUC | 0.537 ± 0.11 | 1.98 ± 0.033 | 1.96 ± 0.031 | 0.59 ± 0.045 |
| CCGCUA | 0.42 ± 0.077 | 2.03 ± 0.053 | 1.827 ± 0.01 | 0.474 ± 0.034 |
| GCGCGG | -0.388 ± 0.022 | 1.81 ± 0.072 | 1.3 ± 0.021 | 0.464 ± 0.018 |
| ACGAGU | 0.0593 ± 0.021 | 1.76 ± 0.022 | 1.11 ± 0.047 | 0.609 ± 0.0067 |
| ACGAGC | 0.0832 ± 0.041 | 1.84 ± 0.049 | 1.27 ± 0.045 | 0.585 ± 0.029 |
| ACGAGG | -0.105 ± 0.022 | 1.412 ± 0.013 | 1.04 ± 0.14 | 0.777 ± 0.034 |
| ACGAGA | -0.0663 ± 0.023 | 1.67 ± 0.045 | 1.14 ± 0.019 | 0.488 ± 0.018 |
| UCCCUG | 0.429 ± 0.01 | 1.87 ± 0.076 | 1.41 ± 0.0038 | 0.587 ± 0.0069 |
| ACCUUG | 0.241 ± 0.0074 | 1.88 ± 0.014 | 1.6 ± 0.055 | 0.521 ± 0.04 |
| ACCUAG | -0.692 ± 0.013 | 1.86 ± 0.03 | 1.58 ± 0.016 | -0.308 ± 0.028 |

| Variant | FACS-Seq fitted mean (log10) (hypoxanthine [1]) | normalized RNA/DNA level with ligand (log10) (hypoxanthine [2]) | normalized RNA/DNA level without ligand (log10) (hypoxanthine [3]) | FACS-Seq fitted mean (log10) (hypoxanthine [4]) |
| --- | --- | --- | --- | --- |
| ACCUAC | 0.113 ± 0.032 | 1.92 ± 0.035 | 1.85 ± 0.05 | 0.264 ± 0.013 |
| GCGCAC | 0.112 ± 0.061 | 1.8 ± 0.2 | 1.412 ± 0.0031 | 0.0185 ± 0.28 |
| GCGCAG | -0.0972 ± 0.035 | 1.58 ± 0.048 | 1.06 ± 0.11 | 0.617 ± 0.052 |
| UCCAGU | 0.305 ± 0.066 | 1.96 ± 0.066 | 1.771 ± 0.013 | 0.502 ± 0.0098 |
| ACCGGG | 0.153 ± 0.0079 | 1.944 ± 0.015 | 1.89 ± 0.038 | 0.548 ± 0.0066 |
| GCCGGU | 0.478 ± 0.08 | 1.957 ± 0.01 | 1.982 ± 0.01 | 0.744 ± 0.043 |
| ACGAAA | 0.129 ± 0.049 | 1.86 ± 0.039 | 1.47 ± 0.056 | 0.425 ± 0.036 |
| ACGAAU | 0.0248 ± 0.013 | 1.77 ± 0.0059 | 1.19 ± 0.025 | 0.504 ± 0.01 |
| ACGAAG | -0.023 ± 0.0073 | 1.49 ± 0.041 | 1.072 ± 0.0031 | 0.501 ± 0.023 |
| UCGGAG | -0.494 ± 0.057 | 1.8831 ± 0.00053 | 1.41 ± 0.064 | -0.522 ± 0.082 |
| CCCCAA | -0.321 ± 0.081 | 1.92 ± 0.018 | 1.78 ± 0.046 | -0.16 ± 0.025 |
| UCGCGU | 0.334 ± 0.04 | 1.9 ± 0.026 | 1.56 ± 0.048 | 0.509 ± 0.016 |
| UCAUUU | 0.631 ± 0.012 | 1.96 ± 0.052 | 1.91 ± 0.031 | 0.769 ± 0.024 |
| GCGGAA | 0.328 ± 0.11 | 1.88 ± 0.033 | 1.53 ± 0.069 | 0.67 ± 0.06 |
| GCGGAC | 0.00746 ± 0.015 | 1.75 ± 0.046 | 1.31 ± 0.032 | 0.546 ± 0.037 |
| GCGGAG | -0.112 ± 0.056 | 1.66 ± 0.054 | 1.24 ± 0.052 | 0.449 ± 0.1 |
| CCGAGA | 0.353 ± 0.076 | 1.87 ± 0.042 | 1.51 ± 0.046 | 0.648 ± 0.061 |
| CCGAGG | 0.00201 ± 0.0053 | 1.839 ± 0.0063 | 1.37 ± 0.038 | 0.423 ± 0.024 |
